Test: label from the status in PepcDB records

Row | Sequence | protein production
1 | MAMSLSGAVLSGMGSSFHNVGAKQSGVGTVRVGRKSELVVVAQRKKSLIYAVKSDGNILDDLNEATKKASDFVTDKTKEALADGEKTKDYIVEKTIEANETATEEAKKALDYVTEKGKEAGNKAAEFVEGKAEEAKNATKS | failed
2 | MQTFFQDTMATPLGELLIIADENNHLRAVEWREYEDGLFRSLNRSYRNDPFSLQSRHNPGGLTDSLQRYFDGELAIIDTLPVASVGTEFQQQVWRELRRIPCGEITTYGELATLLGRTGAARAVGMANGSNPISIVVPCHRVIGTGGALTGYAGGIHRKQWLLAHEGYLPHQNSLPL | failed
3 | MSKPPPKPVKPGQVKVFRALYTFEPRTPDELYFEEGDIIYITDMSDTSWWKGTCKGRTGLIPSNYVAEQAESIDNPLHEAAKRGNLSWLRECLDNRVGVNGLDKAGSTALYWACHGGHKDIVEVLFTQPNVELNQQNKLGDTALHAAAWKGYADIVQLLLAKGARTDLRNNEKKLALDMATNAACASLLKKKQQGTDGARTLSNAEDYLDDEDSD | failed
4 | MNRTARRDGTPEKPRRGSQGGSRGDYGKPKRSHAKPQSANSGRPIKQRKQRDSEMLISNARPARHQHVGRREAGDGSTEG | failed
5 | MYKGYKIGVAVPAYNEEKLIGETLKGIPPFVDRIYVVDDASKDNTSKVVEEMMRHDKRIVLIRHAKNKGVGGAIVSGWKKGLEEGMDILAVMAGDNQMDPRDLPALLDPIVEGKVDFTKGNRFLLSYDLKMSYWRRFGTFLLTILTKIASGYWHINDPQNGYVAIKADALRKIDLDKLDSGYFFENDLLIKASVANLRVVNVPVKIRYKIGEKSKIKYSKFIARTSWLLLRSFLWRIWVEYVKRRKFLGFLYLLGFTLIVTSFLIFLIYPTRLEIPLIVLLAGAAIFLGSCIKEKNLKQYLK | failed
6 | MRVDRSSSSSTVSLLEGKIYVAGGFDPKTHTWSSVTSPSAVIRNESVAEHKSLGLGGKFYLFGYDSDKSAVVYNPKEDNVLFYRFHGLFHWYDYKGNFWKQVNGLGPVACTEKVAILAALDTFDNAR | failed
7 | MKADILLVSHSKMITDGIKEMIEQMNASEEITIHSLGGTSDGSLGSDPMKIIDTINEADSDREFLIFADLGSAVLSSELAFDMLEEDQQKHYHLVDAPLVEGAFASAITAGVSDDLTQILAEAQNAGKKGWN | not failed
8 | MNNRPQLIYILPNLFTAASAFLGVISIIASIHGNYYTALIYIILSLICDGLDGRVARLTNSTSKFGVEFDSLADLVAFGVAPAVLFYMAIGYDFGKLGSLITAFFVVFGAIRLARFNVTTGTYEPSVFIGLPIPTAAVVSAIWTYAFISYDFLKPYGVVFLVLQAILGLLMVSNIRYPSFKKLDFNRSSVLKVLIILIIIFSFLYLYPLESLVILASLYVLYGIIRVLYTIIVSKFKIRNQE | failed
9 | MLKRTFILIGLVLSFCSLPAQELIQITTRNTALVFRVANQSLRQVYYGPRLADTDVLQKQGNNFPAYSTYGMGEQNEVALHAVHADGNTSTLLNFENVKQESPEPGITLTTISLKDPLYPFQVKLFYKAYEESDLIEQWTIYQHTEKKPVTLYQFASAQLSFKSSSYRLTHFAGDWAGECNMSEVELTEGIKVIDSKLGTRATFFAHPMCLLSLNGRMTEDNGEVIGMALAWPANFKLEFEKNNNQELRVLAGMNPYASHYKLKKGDVFQTPSFLYTYSTKGNGQVSRNFHRWARKYGLRHGENSRYTLMNNWEATYFNFNEPKLKSIIEDAAGMGFELFLLDDGWFGQKHPRNNDDAGLGDWVVNKEKLPNGLGWLVKQCTDNDIKFGIWVEPEMVNPQSELFEKHPDWVIQQPEREHILFRRQLVLDLSNPEVQEFVYKSVHDILKDNPQIAFVKWDCNRAVTNPGSTYLPADEQSHIWIEYGRGLLNVFKKVRDSHPDVHFMLCSGGGGRLDYGSLRYFEEYWPSDNTDALQRILIQWGNSQFFPSIAMCCHVSASPNHQTGRTTPLKFRFDVAMQGALGMDLQPSTMNEKEVIFAKEAIKTYESIRNIVFTGDLYRILSPYEGNRTSMMYVLPDKSRAVFYAYQLKSHIGEVSAPMRFKGLIPDKKYNVKELNIYPGSRAATGSANGQSFSGDFLMNQGLPIGLSGDYSSAVIELEQQ | failed
10 | MARREICNKGVVAGVQYSHSHRQSKRTWAPNIKKVKAIVKGTPKTVHVCTRCLRSEKFKELYKKSLAKMQFNNCIFILHKNKGLEHHHHHH | not failed
11 | MRRVLMVNFGVLLLFCFGVLSNSFGQDNGGDSDINSTTAVYIVTLRQASSLHLFQQEAEEVKRVRDQSKHGDTSKFTRPKLQPRNISRSRYWRSRRSAIAQAHDSLLRNALKGEKYIKLYSFHYLINGFAVFVSSQQAETLSRRREVANIVLDFSVRTATTYTPQFMGLPKGAWVKEGGYETAGEGIVIGFIDTGIDPTHPSFNGTDTSQRQYPIPNHFSGVCEVTPDFPSGSCNRKLVGARHFAQSAITRGIFNSSEDYASPFDGDGHGTHTASIAAGNHGVSAVVSGHNFGSASGIAPRAHISVYKALYKSFGGFAADVVAAIDQAAQDGVDILSLSITPNRRPPGVATFFNPLDMAMLSAVKAGIFVVQAAGNTGPSPKSMSSFSPWIFTVGAASHDRDYSNSIVLGNNVSIPGVGLALRTDEGKKYTMISALDALKNKSSVVDKDMYVGECQDYGSFDKDVIRGNLLICSYSIRFVLGLSTIKQALAVAKNLSAKGVVFYMDPYVLGFQINPTPMDMPGIIIPSAEDSKVLLKYYNSSLVRDGTTKEIVRFGAVAAIAGGQNANFSNRAPKIMYYSARGPDPQDSLFNDADILKPNLVAPGNSIWGAWSSAATESTEFEGESFAMMSGTSMAAPHVAGVAALVKQKFRKFSPSAIASALSTTSVLFDNKGEAIMAQRAYANPDQTISPATPFDMGNGFVNATAALDPGLIFDTSFEDYMSFLCGINGSAPVVFNYTGTNCLRNNATISGSDLNLPSITVSKLNNTRTVQRLMTNIAGNETYTVSLITPFDVLINVSPTQFSIASGETKLLSVILTAKRNSSISSFGGIKLLGNAGHIVRIPVSVTVKIASKQ | failed
12 | MIPRCLINQILRLAQASPEREVCGLVGAAAGRRMRCYPVPNVAERPECRFLLDPKGQIDALRAMRERGEELFAIFHSHPTAAAIPSPADLEFAAYPEALHLIVSLGTKGVLEMRGFRIGSSSRPREVELLLAPELEHHHHHH | failed
13 | MRDTRESRLLLVLLVAIAFALITVDIRGGQDSPVDGARQAAATVFGPIENGVSSAVDPVGNAVAAVRDSGSRHDRIAQLEHDNAALKAKLGSDDRNRSRLKQLNKMIRVAGEGQYGIKGAEVIGIGAAQGFSWTVTIDVGANDGIKRDMTVLNGDGLVGRVTTVGPNAATVLLANDPDFTVGTRMESSDELGFASGQGDRPLRVQLLNGKAKVVKGDRLVTFGSQADRPFVPGVPVGVVSRVDPSGGDLTRTVYVTPYVSFTKLDIVGVVVAAPKKDPRDEVLPPKPRPTPTPTVTVTVTPSANASADGQQQQQ | failed
14 | MGTLTCKDLNHKYRDTTMYKQQQIKQWFCGLSSITCQHISDWQKPHLGVLCAASAFLVLAAPVVNLPGSKLLAQTPISRDLETASFYQQGVTRYNRSDWQGAENAFRQALQREPNLAMARAYLGNIYLMQNRLDVAVQEYGEAIRLNPNLGETYYNLGLALQQQGKKEGAITAYRQALVIDPRRVEAYYNLGLVLYEQGLLQEAIAAYQDAVNLEPSKINAHHNLAIALQQTGKMEEAIVAYREVLKLDPKNAAAYSSLGSLMAMQGRPEEAIAAYTQAVRQDPKNALAYYNLGITLYNQGELQKASNAFKRAQEEYSQQGNLEQTEKTEQLMQQVAQKIEEQKLQQRQASTPKPTDNSTNNLLEKLTQLTAPKEQPANSGAVPVSDEQKQFPPIFPNTNSR | failed
15 | MGDFDPNKPVVISEFSPKEGGLGTRMLLYGENFGSDISKIKVTIGGQDSKVVGAKGKSLYCVVPAKAYDGDIKLSILNDEGEEIANTEANEKFVYQKKMLVTTFLGTMYDGNTKYDLKDGPFDDCGGFGGAVWLSFDPKNHNHLYLVGEQHPTRLIDFEKEYVSTVYSGLSKVRTICWTHEADSMIITNDQNNNDRPNNYILTRESGFKVITELTKGQNCNGAETHPINGELYFNSWNAGQVFRYDFTTQETTPLFTIQDSGWEFHIQFHPSGNYAYIVVVNQHYILRSDYDWKTKRLTTPYIVCGQQGAKDWVDGVGKKARMHAPRQGTFVKNPAYKGSSDEYDFYFCDRENHCIRILTPQGRVTTFAGRGSNGTSGYNDGDLRQEARFNHPEGIVYDEERECFFIGDRENRRIRKIGLEHHHHHH | failed
16 | MLKLTATKQTSQQRSLKMNTLTKLLAATMTLSAQAMAATPLTLDVYNADGNSFHVNATVVYGETEAMVVDTGFTKADALRIGAKVLDSGKTLKTIFISQADPDYYFGAEVLKQMFPQAEVIATPGVKAKIEQKLQGKLDFWAPKMGANAPVKPVLPTAYQGKTLEIDGQTIEIRGTEGELKHRPYLWIPANAAILGNVAVYGNVHLWMADAQTDSERKAWAEQLDEMAALKPKVVIPGHMTPGTAMDSSAITFSQKYLADFAKAKASSKNSAQLIEKMSKIYPDAGLPMALEIGAKVHTGEMKW | failed
17 | MATPKLEIGVIGLGKFGLQVSRTLVELGHSVVGIDSTEGRIRQAQDILSQVYQGNAADPAVLQQLRFQDLDCVIVSVGNSMETSLLVTLNLQEIGVRKIWVKAVSTEHKKVLTRLGVDHVILPEHDVATHLAHRLVNPGMLDLLPLGGGGQILLQELTVDKWAGRTLLDLRLANEHGVMVVAVKPAAFREYRFVPAAHEVLQQGDKLVVIGRHEDVLRLEP | failed
18 | MVKKFKRVLVANRGEIAIRIFRACHELGIRTVAIYSEEDKLALFRTKADESYLIGQNKGPVDAYLNIDEIINLALKKGVDAIHPGYGFLSENSEFSRRCTEAGIEFIGPTGDMMDKLGDKINSKLAAKAAGVKTIPGVEKPIETEQQAIEFARTCGYPVMVKAAAGGGGRGMRIVEKEEDLIAACRSAKSEAKKAFGIEDIFIEKYLEGPKHIEVQVLGDKYGNIVHLYERDCSVQRRHQKVIELTPAVSMSEEKRLEICEDALKIARSIGYRSAGTLEFLLDKHGNHYFIEMNPRVQVEHTITEMVTGIDIVQSQILIAEGYKLNSPEVGINSQEDIHVNGYAIQCRITTEDPSNSFAPDTGKIDVYRTGSGFGIRLDGGNGFTGAVISPYYDSLLVKSTSWSRTFEDAIRKAIRAIKETYISGVKTNIDFLINVLNHETFRKGLCDTNFIANNPELFEITPRIDTELRVLKFIGEKVVNETHGHKIEVDVPSVPKYEIKEPLRGTKQILDEKGPKGLVEWIKDQDKLLLTDTTMRDAHQSLMATRLRTVDMVKIAKAESVLAKDLFSMEMWGGATFDTAYRFLKESPWERLERLRKRVPNVLFQMLLRGANAVGYKNYPDNVIREFIKQSSKSGIDVFRIFDSLNWVKGMEVAIDEVLNQGKVAEACMCYTGDILDTNRDKYTLNYYVNLAKEIEKSGAHILGIKDMSALLKPYAALKLIRALKNEISIPIHLHTHDTTGNGVATVLMAAHAGVDIADTAFNSMSGLTSQPALNSVVAALKNTDRDTKMDIGDLQKISDYWSTVRPVYSKFESGLKAVSAEIYKYEIPGGQYSNLKPQVESFGLGHRFEQVKEMYREVNIMLGDIVKVTPSSKMVGDLAIFMVQNELTSENILEKAKDMPFPDSVVSYFKGMMGQPKGGFPKELQKIVLKDEEAITCRPGELLPDEDFDKIRVRLKKENKIEPTDKDVISYALYPDVFEEYLKYKNEYGDLSRMGSDVFFHGLAEGEISELEIAEGKTLVVQLLHIGKLDKQGNRTLVFEVNGNRREIKIKDKVSSTKSEIVEEIVIADSSNKKEIGASIPGNVVKVFVKPGDKVKKGDSLMVIEAMKMETNVSVSEDGTVGGIFVKEGDQVQSGQLLVKLD | failed
19 | MVRMQTKAVMVFKLDEEGNAFYTQDIGDLYIFISRSEPFCVPASSFPGMFSNFVELLDVNENVTVDLSDYSMNGGFGYFGAPAHIPPQKLD | failed
20 | AGVMTGAKFTQIQFGMTRQQVLDIAGAENCETGGSFGDSIHCRGHAAGDYYAYATFGFTSAAADAKVDSKSQEKLLAPSAPTLTLAKFNQVTVGMTRAQVLATVGQGSCTTWSEYYPAYPSTAGVTLSLSCFDVDGYSSTGAYRGSAHLWFTDGVLQGKRQWDLV | not failed

Reference: a protein production outcome set (Wang et al. 2014)
